Assay results as given in publication PMC5651819, “AtSPX1 affects the AtPHR1–DNA-binding equilibrium by binding monomeric AtPHR1 in solution” (Biochemical Journal, 2017).

Biological target: MBP-AtdPHR1 (Arabidopsis thaliana) (UniProt Q94CL7)
Experiment: SPR
Conditions: SPR (Biacore 3000, SA chip, ~500 RU DNA): 10 mM HEPES pH 7.5, 200 mM NaCl, 0.01% Surfactant P-20, 25 C, 40 ul/min, with or without Pi/InsP6

Chain of MBP-AtdPHR1 (Arabidopsis thaliana) (Q94CL7 208-362): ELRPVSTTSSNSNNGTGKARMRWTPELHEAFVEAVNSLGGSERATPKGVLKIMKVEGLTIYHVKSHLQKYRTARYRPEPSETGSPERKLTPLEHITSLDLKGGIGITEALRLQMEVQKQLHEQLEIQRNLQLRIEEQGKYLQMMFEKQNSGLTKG

Work on “ACACTTCGTCACGCTAAAGCTAAGCATATCCGCTTTCATATTCCTTTACACAAC (double strand) [1x P1BS probe]” yielded a Kd of 707 nM.
